The results in this text go back to patent publication US20240269307A1 (JIANGSU HENGRUI PHARMACEUTICALS, published 2024).

In assay [1] the target is T1, human Nectin-4 expressed on cells (Nectin4-CHOK1, T47D, MDA-MB-468) (human, UniProt Q96NY8 32-510).
T1 sequence: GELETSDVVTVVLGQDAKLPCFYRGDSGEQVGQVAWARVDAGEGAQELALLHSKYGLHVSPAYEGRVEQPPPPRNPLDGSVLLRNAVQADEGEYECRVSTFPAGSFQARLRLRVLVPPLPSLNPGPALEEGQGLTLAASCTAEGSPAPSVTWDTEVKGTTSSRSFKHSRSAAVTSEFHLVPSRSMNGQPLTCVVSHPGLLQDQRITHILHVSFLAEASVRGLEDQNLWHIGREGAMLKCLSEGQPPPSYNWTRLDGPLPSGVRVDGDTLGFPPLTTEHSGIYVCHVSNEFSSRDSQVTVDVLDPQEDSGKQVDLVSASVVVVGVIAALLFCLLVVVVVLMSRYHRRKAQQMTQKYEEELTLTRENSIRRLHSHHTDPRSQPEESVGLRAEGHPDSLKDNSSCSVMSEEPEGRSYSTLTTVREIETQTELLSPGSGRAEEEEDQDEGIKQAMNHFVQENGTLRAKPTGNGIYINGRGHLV
The assay can be described thus: cell-based or functional assay.

Assay [2] concerns the target T1, human Nectin-4 expressed on cells …. The assay can be described thus: cell-based or functional assay. The source holds these as a separate data set.

B1: ADC-2 (EV201-9-A) (antibody, human IgG1, kappa, V domains shown)
VH: EVQLVESGGGLVQPGGSLRLSCAASGFTFSSYNMNWVRQAPGKGLEWVSYISSSSSTIYYADSVKGRFTISRDNAKNSLSLQMNSLRDEDTAVYYCARAYYYGMDVWGQGTTVTVSS
VL: DIQMTQSPSSVSASVGDRVTITCRASQGISGWLAWYQQKPGKAPKFLIYAASTLQSGVPSRFSGSGSGTDFTLTISSLQPEDFATYYCQQANSFPPTFGGGTKVEIKR
modifications: compound 9-A (exatecan analog linker-drug) coupled to cysteine sulfhydryls after TCEP reduction; average loading n=3.90 for the whole antibody; positions not given
Consider B1, for which, in assay [1], the “IC50(nM), killing of MDA-MB-468 (++) cells, CTG, 6 days” value amounted to 152 nM and the “IC50(nM), killing of T47D (+++) cells, CTG, 6 days” value came out at 193 nM.

B2: positive control antibody EV201 (antibody, human IgG1, kappa, V domains shown)
VH: B1 VH
VL: B1 VL
On to B2, for which the “IC50 (nM), DT3C antibody endocytosis assay on Nectin4-CHOK1 cells” value in assay [2] came out at 0.5 nM.

B3: ADC-1 (NEC49-9-A) (antibody, V domains shown)
VH: EVQLLESGGGLVQPGGSLRLSCAASGFTFSSYAMSWVRQAPGKGLEWVSAIYSGGSTYYADSVKGRFTISRDNSKNTLYLQMNSLRAEDTAVYYCTRHGGDSGSWSYYYYGMDVWGQGTTVTVSS
VL: not shown
modifications: compound 9-A (exatecan analog linker-drug) coupled to cysteine sulfhydryls after TCEP reduction; average loading n=4.90 for the whole antibody; positions not given
Regarding B3, in assay [1], the “IC50(nM), killing of MDA-MB-468 (++) cells, CTG, 6 days” value stood at 87.5 nM and the “IC50(nM), killing of T47D (+++) cells, CTG, 6 days” value was 111 nM.

B4: fully human antibody molecule NEC49 (antibody, V domains shown)
VH: B3 VH
VL: not shown
Take B4: the “IC50 (nM), DT3C antibody endocytosis assay on Nectin4-CHOK1 cells” value in assay [2] is 0.43 nM.
